Experimental data from article PMC11535393, “Combining systems and synthetic biology for in vivo enzymology” (The EMBO Journal, 2024).

Key:
PaCrtI = target: T1, PaCrtI (Pantoea ananatis, UniProt P21685); experiment: in vivo lycopene flux vs intracellular phytoene in yeast strains, Michaelis-Menten fit; assay type: cell-based; conditions: read-out: K1/2cell; in living S. cerevisiae, exponential growth, 28 °C, medium pH 5.0; TDH3p expression; total intracellular substrate concentration; lower limit only, no saturation
T1 construct: gene crtI; full-length, yeast codon-optimized synthetic gene, expressed in Saccharomyces cerevisiae under TDH3p; V5 tag (CrtI-V5 in western blot)
T1 sequence (P21685 whole entry): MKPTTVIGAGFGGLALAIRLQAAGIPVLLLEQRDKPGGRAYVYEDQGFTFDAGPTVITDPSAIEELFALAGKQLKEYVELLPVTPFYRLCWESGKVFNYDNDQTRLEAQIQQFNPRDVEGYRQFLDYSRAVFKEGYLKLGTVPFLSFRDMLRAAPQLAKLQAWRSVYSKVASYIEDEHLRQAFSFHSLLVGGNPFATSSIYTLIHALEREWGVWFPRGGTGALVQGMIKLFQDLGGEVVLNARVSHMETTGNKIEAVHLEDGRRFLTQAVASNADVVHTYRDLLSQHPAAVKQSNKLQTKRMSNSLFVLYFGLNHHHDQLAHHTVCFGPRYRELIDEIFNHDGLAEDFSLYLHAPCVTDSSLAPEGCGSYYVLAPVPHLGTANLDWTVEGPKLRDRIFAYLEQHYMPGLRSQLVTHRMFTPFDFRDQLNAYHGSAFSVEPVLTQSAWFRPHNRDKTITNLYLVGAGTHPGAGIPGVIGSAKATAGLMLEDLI

[1] = system: CC(C)=CCC/C(C)=C/CC/C(C)=C/CC/C(C)=C/COP(=O)(O)OP(=O)(O)O; experiment: cells, lysate or membranes; conditions: in living S. cerevisiae, exponential growth, 28 °C, medium pH 5.0, PGI1p expression, total intracellular substrate concentration, partial saturation
[2] = substrate: CC(C)=CCC/C(C)=C/CC/C(C)=C/CC/C(C)=C/C=C\C=C(/C)CC/C=C(\C)CC/C=C(\C)CCC=C(C)C; experiment: in vivo lycopene flux vs intracellular phytoene in yeast strains, Michaelis-Menten fit; assay type: cell-based, Phaffia rhodozyma; conditions: in living S. cerevisiae, exponential growth, 28 °C, medium pH 5.0, PGK1p expression, total intracellular substrate concentration
[3] = substrate: CC(C)=CCC/C(C)=C/CC/C(C)=C/CC/C(C)=C/C=C\C=C(/C)CC/C=C(\C)CC/C=C(\C)CCC=C(C)C; experiment: as above; assay type: cell-based, Blakeslea trispora; conditions: in living S. cerevisiae, exponential growth, 28 °C, medium pH 5.0, PGI1p expression, total intracellular substrate concentration, enzyme level slightly higher in low-phytoene strains

## CC(C)=CCC/C(C)=C/CC/C(C)=C/CC/C(C)=C/C=C\C=C(/C)CC/C=C(\C)CC/C=C(\C)CCC=C(C)C [phytoene]
PaCrtI
  Km: > 560 µM

## PaCrtB (Pantoea ananatis)
[1]
  K0.5: 19 ± 3 µM
  kcat: 6 ± 1 s⁻¹

B1: XdCrtI (Phaffia rhodozyma) (protein)
chain: MGKEKDQDKPTAIIVGCGIGGIATAARLAKEGFQVTVFEKNDYSGGRCSLIERDGYRFDQGPSLLLLPDLFKQTFEDLGEKMEDWVDLIKCEPNYVCHFHDEETFTLSTDMALLKREVERFEGKDGFDRFLSFIQEAHRHYELAVVHVLQKNFPGFAAFLRLQFIGQILALHPFESIWTRVCRYFKTDRLRRVFSFAVMYMGQSPYSAPGTYSLLQYTELTEGIWYPRGGFWQVPNTLLQIVKRNNPSAKFNFNAPVSQVLLSPAKDRATGVRLESGEEHHADVVIVNADLVYASEHLIPDDARNKIGQLGEVKRSWWADLVGGKKLKGSCSSLSFYWSMDRIVDGLGGHNIFLAEDFKGSFDTIFEELGLPADPSFYVNVPSRIDPSAAPEGKDAIVILVPCGHIDASNPQDYNKLVARARKFVIQTLSAKLGLPDFEKMIVAEKVHDAPSWEKEFNLKDGSILGLAHNFMQVLGFRPSTRHPKYDKLFFVGASTHPGTGVPIVLAGAKLTANQVLESFDRSPAPDPNMSLSVPYGKPLKSNGTGIDSQVQLKFMDLERWVYLLVLLIGAVIARSVGVLAF
notes: full-length, gene amplified from a plasmid, expressed in Saccharomyces cerevisiae under PGK1p; V5 tag (CrtI-V5 in western blot)
[2]
  K0.5: 380 ± 49 µM
  kcat: 0.030 ± 0.006 s⁻¹

B2: BtCrtI (Blakeslea trispora) (protein)
chain: MSDQKKHIVVIGAGIGGTATAARLAREGFRVTVVEKNDFSGGRCSFIHHDGHRFDQGPSLYLMPKLFEDAFADLDERIGDHLDLLRCDNNYKVHFDDGDAVQLSSDLTKMKGELDRIEGPLGFGRFLDFMKETHVHYEQGTFIAIKRNFETIWDLIRLQYVPEIFRLHLFGKIYDRASKYFQTKKMRMAFTFQTMYMGMSPYDAPAVYSLLQYTEFAEGIWYPRGGFNMVVQKLESIASKKYGAEFRYQSPVAKINTVDKDKRVTGVTLESGEVIEADAVVCNADLVYAYHHLLPPCNWTKKTLASKKLTSSSISFYWSMSTKVPQLDVHNIFLAEAYKESFDEIFNDFGLPSEASFYVNVPSRIDESAAPPNKDSIIVLVPIGHMKSKTGNSAEENYPELVNRARKMVLEVIERRLGVNNFANLIEHEEVNDPSVWQSKFNLWRGSILGLSHDVFQVLWFRPSTKDSTNRYDNLFFVGASTHPGTGVPIVLAGSKLTSDQVCKSFGQNPLPRKLQDSQKKYAPEQTSKTESHWIYYCLACYFVTFLFFYFFPRDDTTTPASFINQLLPNVFQVQNSNDIRI
notes: full-length, yeast codon-optimized synthetic gene, expressed in Saccharomyces cerevisiae under PGI1p; V5 tag (CrtI-V5 in western blot)
[3]
  K0.5: 41 ± 12 µM
